Results: patent US5969094A, “Anti-paramyxovirus screening method and vaccine” (Emory University, priority 1996, dated 1999)
Positions count from the first letter of the chain named.

B1: SN(140) chimeric HN protein (other)
chain: MDGDRGKRDSYWSTSPSGSTTKPASGWERSSKADTWLLILSFTQWALSIATVIICIIISARQGYSMKEYSMTVEALNMSSREVKESLTSLIRQEVIARAVNIQSSVQTGIPVLLNKNSRDVIQMIDKSCSRQELTQHCESRITHDVGIKPLNPDDFWRCTSGLPSLMKTPKIRLMPGPGLLAMPTTVDGCVRTPSLVINDLIYAYTSNLITRGCQDIGKSYQVLQIGIITVNSDLVPDLNPRISHTFNINDNRKSCSLALLNTDVYQLCSTPKVDERSDYASSGIEDIVLDIVNHDGSISTTRFKNNNISFDQPYAALYPSVGPGIYYKGKIIFLGYGGLEHPINENAICNTTGCPGKTQRDCNQASHSPWFSDRRMVNSIIVVDKGLNSIPKLKVWTISMRQNYWGSEGRLLLLGNKIYIYTRSTSWHSKLQLGIIDITDYSDIRIKWTWHNVLSRPGNNECPWGHSCPDGCITGVYTDAYPLNPTGSIVSSVILDSQKSRVNPVITYSTSTERVNELAIRNKTLSAGYTTTSCITHYNKGYCFHIVEINHKSLDTFQPMLFKTEIPKSCS
B2: SN(137) chimeric HN protein (other)
chain: B1 chain with C138P, E139P, S140Q
B3: SN(27-140) chimeric HN protein (other)
chain: MEYWKHTNHGKDAGNELETSMATHGNWERSSKADTWLLILSFTQWALSIATVIICIIISARQGYSMKEYSMTVEALNMSSREVKESLTSLIRQEVIARAVNIQSSVQTGIPVLLNKNSRDVIQMIDKSCSRQELTQHCESRITHDVGIKPLNPDDFWRCTSGLPSLMKTPKIRLMPGPGLLAMPTTVDGCVRTPSLVINDLIYAYTSNLITRGCQDIGKSYQVLQIGIITVNSDLVPDLNPRISHTFNINDNRKSCSLALLNTDVYQLCSTPKVDERSDYASSGIEDIVLDIVNHDGSISTTRFKNNNISFDQPYAALYPSVGPGIYYKGKIIFLGYGGLEHPINENAICNTTGCPGKTQRDCNQASHSPWFSDRRMVNSIIVVDKGLNSIPKLKVWTISMRQNYWGSEGRLLLLGNKIYIYTRSTSWHSKLQLGIIDITDYSDIRIKWTWHNVLSRPGNNECPWGHSCPDGCITGVYTDAYPLNPTGSIVSSVILDSQKSRVNPVITYSTSTERVNELAIRNKTLSAGYTTTSCITHYNKGYCFHIVEINHKSLDTFQPMLFKTEIPKSCS
B4: SN-HN: wild type Sendai virus hemagglutinin-neuraminidase (HN) protein (protein)
chain: MDGDRGKRDSYWSTSPSGSTTKPASGWERSSKADTWLLILSFTQWALSIATVIICIIISARQGYSMKEYSMTVEALNMSSREVKESLTSLIRQEVIARAVNIQSSVQTGIPVLLNKNSRDVIQMIDKSCSRQELTQHCESTIAVHHADGIAPLEPHSFWRCPVGEPYLSSDPEISLLPGPSLLSGSTTISGCVRLPSLSIGEAIYAYSSNLITQGCADIGKSYQVLQLGYISLNSDMFPDLNPVVSHTYDINDNRKSCSVVATGTRGYQLCSMPTVDERTDYSSDGIEDLVLDVLDLKGRTKSHRYRNSEVDLDHPFSALYPSVGNGIATEGSLIFLGYGGLTTPLQGDTKCRTQGCQQVSQDTCNEALKITWLGGKQVVSVIIQVNDYLSERPKIRVTTIPITQNYLGAEGRLLKLGDRVYIYTRSSGWHSQLQIGVLDVSHPLTINWTPHEALSRPGNKECNWYNKCPKECISGVYTDAYPLSPDAANVATVTLYANTSRVNPTIMYSNTTNIINMLRIKDVQLEAAYTTTSCITHFGKGYCFHIIEINQKSLNTLQPMLFKTSIPKLCKAES
B5: SN(44-140) chimeric HN protein (other)
chain: MEYWKHTNHGKDAGNELETSMATHGNKITNKITYILWTIILVLQWALSIATVIICIIISARQGYSMKEYSMTVEALNMSSREVKESLTSLIRQEVIARAVNIQSSVQTGIPVLLNKNSRDVIQMIDKSCSRQELTQHCESRITHDVGIKPLNPDDFWRCTSGLPSLMKTPKIRLMPGPGLLAMPTTVDGCVRTPSLVINDLIYAYTSNLITRGCQDIGKSYQVLQIGIITVNSDLVPDLNPRISHTFNINDNRKSCSLALLNTDVYQLCSTPKVDERSDYASSGIEDIVLDIVNHDGSISTTRFKNNNISFDQPYAALYPSVGPGIYYKGKIIFLGYGGLEHPINENAICNTTGCPGKTQRDCNQASHSPWFSDRRMVNSIIVVDKGLNSIPKLKVWTISMRQNYWGSEGRLLLLGNKIYIYTRSTSWHSKLQLGIIDITDYSDIRIKWTWHNVLSRPGNNECPWGHSCPDGCITGVYTDAYPLNPTGSIVSSVILDSQKSRVNPVITYSTSTERVNELAIRNKTLSAGYTTTSCITHYNKGYCFHIVEINHKSLDTFQPMLFKTEIPKSCS
B6: SN(54-140) chimeric HN protein (other)
chain: B5 chain with Q44L, W45S, A46I, L47V, S48F, A50I, T51V, V52L
B7: SN(59-140) chimeric HN protein (other)
chain: MEYWKHTNHGKDAGNELETSMATHGNKITNKITYILWTIILVLLSIVFIIVLINSIKSSARQGYSMKEYSMTVEALNMSSREVKESLTSLIRQEVIARAVNIQSSVQTGIPVLLNKNSRDVIQMIDKSCSRQELTQHCESRITHDVGIKPLNPDDFWRCTSGLPSLMKTPKIRLMPGPGLLAMPTTVDGCVRTPSLVINDLIYAYTSNLITRGCQDIGKSYQVLQIGIITVNSDLVPDLNPRISHTFNINDNRKSCSLALLNTDVYQLCSTPKVDERSDYASSGIEDIVLDIVNHDGSISTTRFKNNNISFDQPYAALYPSVGPGIYYKGKIIFLGYGGLEHPINENAICNTTGCPGKTQRDCNQASHSPWFSDRRMVNSIIVVDKGLNSIPKLKVWTISMRQNYWGSEGRLLLLGNKIYIYTRSTSWHSKLQLGIIDITDYSDIRIKWTWHNVLSRPGNNECPWGHSCPDGCITGVYTDAYPLNPTGSIVSSVILDSQKSRVNPVITYSTSTERVNELAIRNKTLSAGYTTTSCITHYNKGYCFHIVEINHKSLDTFQPMLFKTEIPKSCS
B8: PI3-HN: wild type human parainfluenza type 3 virus HN protein (protein)
chain: MEYWKHTNHGKDAGNELETSMATHGNKITNKITYILWTIILVLLSIVFIIVLINSIKSEKAHESLLQDVNNEFMEVTEKIQMASDNINDLIQSGVNTRLLTIQSHVQNYIPISLTQQMSDLRKFISEITIRNDNQEVPPQRITHDVGIKPLNPDDFWRCTSGLPSLMKTPKIRLMPGPGLLAMPTTVDGCVRTPSLVINDLIYAYTSNLITRGCQDIGKSYQVLQIGIITVNSDLVPDLNPRISHTFNINDNRKSCSLALLNTDVYQLCSTPKVDERSDYASSGIEDIVLDIVNHDGSISTTRFKNNNISFDQPYAALYPSVGPGIYYKGKIIFLGYGGLEHPINENAICNTTGCPGKTQRDCNQASHSPWFSDRRMVNSIIVVDKGLNSIPKLKVWTISMRQNYWGSEGRLLLLGNKIYIYTRSTSWHSKLQLGIIDITDYSDIRIKWTWHNVLSRPGNNECPWGHSCPDGCITGVYTDAYPLNPTGSIVSSVILDSQKSRVNPVITYSTSTERVNELAIRNKTLSAGYTTTSCITHYNKGYCFHIVEINHKSLDTFQPMLFKTEIPKSCS

What follows are molecules tested against T1, SN-F (Sendai virus, UniProt P04855) (assay: not given).
T1 sequence (P04855 117-565 limits assumed): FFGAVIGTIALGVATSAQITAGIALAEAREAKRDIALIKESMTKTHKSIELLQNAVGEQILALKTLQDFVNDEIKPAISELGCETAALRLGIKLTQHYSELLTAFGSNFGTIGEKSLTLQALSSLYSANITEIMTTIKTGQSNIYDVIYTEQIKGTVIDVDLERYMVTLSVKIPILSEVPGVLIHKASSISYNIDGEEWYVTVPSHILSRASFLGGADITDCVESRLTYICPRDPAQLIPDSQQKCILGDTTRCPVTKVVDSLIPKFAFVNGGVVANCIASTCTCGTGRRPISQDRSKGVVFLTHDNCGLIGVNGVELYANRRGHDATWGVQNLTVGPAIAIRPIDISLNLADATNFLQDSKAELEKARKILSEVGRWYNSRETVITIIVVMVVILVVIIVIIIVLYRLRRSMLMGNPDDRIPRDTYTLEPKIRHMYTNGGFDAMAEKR
T1 sequence (P04855 26-116 partner limits assumed): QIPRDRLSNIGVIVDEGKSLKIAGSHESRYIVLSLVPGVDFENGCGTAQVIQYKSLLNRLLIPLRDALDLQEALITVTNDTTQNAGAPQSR
Format: cell-based

Row | Molecule | Relative fusion promoting activity b/a | cell fusion / syncytium formation with SN-F observed by microscopy | fusion promoting activity, percentage of wild type SN-HN | Fusion activity (5)
1 | B1 | 0.66 | lower level of syncytium formation | – | –
2 | B2 | – | – | did not show any significant fusion promoting activity | –
3 | B3 | – | Syncytium formation was observed | – | –
4 | B4 | 0.61 | Extensive cell fusion | – | 100.00
5 | B5 | 0.70 | – | – | –
6 | B6 | 0.42 | – | – | –
7 | B7 | 0.11 | – | 8.8% | –
8 | B8 | 0.03 | no cell fusion was observed | – | 3.47

Each molecule was assayed against T2, SN-F, fusion glycoprotein of Sendai virus (Sendai virus (SN), UniProt P04855) (assay: cell-based or functional assay).
T2 sequence: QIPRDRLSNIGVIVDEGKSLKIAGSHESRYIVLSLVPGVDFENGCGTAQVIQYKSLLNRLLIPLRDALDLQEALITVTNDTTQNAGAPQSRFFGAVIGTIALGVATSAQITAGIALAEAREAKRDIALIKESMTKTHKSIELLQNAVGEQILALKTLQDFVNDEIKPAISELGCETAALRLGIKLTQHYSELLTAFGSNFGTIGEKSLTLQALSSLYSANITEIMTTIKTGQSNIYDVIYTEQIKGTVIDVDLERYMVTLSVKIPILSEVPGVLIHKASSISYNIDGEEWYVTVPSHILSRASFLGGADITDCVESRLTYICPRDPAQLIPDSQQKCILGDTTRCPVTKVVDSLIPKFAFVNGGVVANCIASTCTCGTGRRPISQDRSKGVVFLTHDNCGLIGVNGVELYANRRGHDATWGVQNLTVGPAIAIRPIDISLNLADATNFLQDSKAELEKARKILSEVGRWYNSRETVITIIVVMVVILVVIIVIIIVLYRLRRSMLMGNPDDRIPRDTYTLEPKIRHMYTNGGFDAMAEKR

Row | Molecule | Fusion activity (%), β-galactosidase production in the fusion dependent reporter gene activation assay
9 | B1 | 44.6 % of SN-HN wt with SN-F
10 | B2 | 0 % of SN-HN wt with SN-F
11 | B3 | 79.7 % of SN-HN wt with SN-F
12 | B5 | 88.7 % of SN-HN wt with SN-F
13 | B6 | 55.3 % of SN-HN wt with SN-F
14 | B7 | 8.82 % of SN-HN wt with SN-F

Each molecule was assayed on HeLa-T4 cells (assay: not given).
Format: cell-based

Row | Molecule | Cell surface expression (%)
15 | B1 | 68.1%
16 | B3 | 75.6%
17 | B4 | 163.9%
18 | B5 | 126.6%
19 | B6 | 131.5%
20 | B7 | 82.3%
21 | B8 | 100.0%

What follows are molecules tested on guinea pig erythrocytes (assay: not given).
Format: cell-based

Row | Molecule | HAD activity as percentage of wild type SN-HN hemadsorption | hemadsorption observed under the microscope
22 | B1 | comparable or higher HAD activity than that of SN-HN | high levels of hemadsorption
23 | B2 | 27.5% | lower activities
24 | B3 | comparable or higher HAD activity than that of SN-HN | high levels of hemadsorption
25 | B4 | – | high levels of hemadsorption
26 | B5 | comparable or higher HAD activity than that of SN-HN | high levels of hemadsorption
27 | B6 | comparable or higher HAD activity than that of SN-HN | high levels of hemadsorption
28 | B7 | comparable or higher HAD activity than that of SN-HN | high levels of hemadsorption
